Results from patent publication US10428140B2, “Anti-EphA4 antibody” (EISAI R&D MANAGEMENT CO., LTD., priority 2015, dated 2019).
Substitutions are numbered along the chain they refer to.

T1: human EphA1 (Homo sapiens, UniProt P21709)
T1 construct: a protein of the extracellular region of each human Eph receptor fused with the SEAP protein and the His tag; made in house; host or cells: Expi293F cells (culture supernatant)
T1 sequence (P21709 26-547 limits assumed): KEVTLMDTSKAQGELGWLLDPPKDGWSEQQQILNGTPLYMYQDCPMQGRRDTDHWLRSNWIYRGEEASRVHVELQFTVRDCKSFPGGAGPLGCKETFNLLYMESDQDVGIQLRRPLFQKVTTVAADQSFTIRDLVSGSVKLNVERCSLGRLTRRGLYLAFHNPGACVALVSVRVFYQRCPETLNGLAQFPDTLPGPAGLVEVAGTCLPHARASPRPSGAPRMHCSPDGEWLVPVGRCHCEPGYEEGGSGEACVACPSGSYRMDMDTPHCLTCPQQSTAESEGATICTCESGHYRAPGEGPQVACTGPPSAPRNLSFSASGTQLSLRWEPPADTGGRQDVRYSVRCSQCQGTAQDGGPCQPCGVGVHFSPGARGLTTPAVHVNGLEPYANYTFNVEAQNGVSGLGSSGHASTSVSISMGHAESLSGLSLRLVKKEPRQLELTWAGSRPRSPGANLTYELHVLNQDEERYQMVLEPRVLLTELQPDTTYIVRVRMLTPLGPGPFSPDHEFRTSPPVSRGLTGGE

T2: human EphB1 (Homo sapiens, UniProt P54762)
T2 construct: a protein of the extracellular region of each human Eph receptor fused with the SEAP protein and the His tag; made in house; host or cells: Expi293F cells (culture supernatant)
T2 sequence (P54762 18-540 limits assumed): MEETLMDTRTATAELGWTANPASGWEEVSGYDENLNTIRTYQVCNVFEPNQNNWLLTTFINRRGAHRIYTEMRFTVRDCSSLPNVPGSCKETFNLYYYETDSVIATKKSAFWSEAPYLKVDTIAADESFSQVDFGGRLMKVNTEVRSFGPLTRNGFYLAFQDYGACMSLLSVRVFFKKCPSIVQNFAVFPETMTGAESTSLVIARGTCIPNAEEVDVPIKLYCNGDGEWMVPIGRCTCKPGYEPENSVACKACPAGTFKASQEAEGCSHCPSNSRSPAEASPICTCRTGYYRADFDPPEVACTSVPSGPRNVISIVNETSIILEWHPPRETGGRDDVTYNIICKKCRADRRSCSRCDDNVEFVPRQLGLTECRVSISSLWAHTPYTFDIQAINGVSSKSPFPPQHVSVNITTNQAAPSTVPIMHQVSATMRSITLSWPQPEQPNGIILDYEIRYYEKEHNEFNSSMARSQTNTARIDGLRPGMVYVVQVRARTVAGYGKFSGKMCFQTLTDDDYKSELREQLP

T3: human EphA6 (Homo sapiens, UniProt Q9UF33)
T3 construct: a protein of the extracellular region of each human Eph receptor fused with the SEAP protein and the His tag; made in house; host or cells: Expi293F cells (culture supernatant)
T3 sequence (Q9UF33 23-550 limits assumed): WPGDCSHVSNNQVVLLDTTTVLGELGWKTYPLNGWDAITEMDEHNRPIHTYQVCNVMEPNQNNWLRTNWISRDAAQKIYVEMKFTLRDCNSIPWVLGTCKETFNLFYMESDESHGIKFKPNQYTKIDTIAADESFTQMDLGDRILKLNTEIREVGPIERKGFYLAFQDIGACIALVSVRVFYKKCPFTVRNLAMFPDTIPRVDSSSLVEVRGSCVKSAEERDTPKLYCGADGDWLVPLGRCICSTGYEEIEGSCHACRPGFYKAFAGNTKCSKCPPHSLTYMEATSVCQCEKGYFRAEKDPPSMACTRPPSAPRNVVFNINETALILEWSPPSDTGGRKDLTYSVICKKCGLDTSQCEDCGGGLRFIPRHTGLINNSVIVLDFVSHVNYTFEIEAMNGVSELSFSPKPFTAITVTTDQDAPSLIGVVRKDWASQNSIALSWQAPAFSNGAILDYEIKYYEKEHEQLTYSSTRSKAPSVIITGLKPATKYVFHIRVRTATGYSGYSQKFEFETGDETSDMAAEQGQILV

B1: 95 (antibody, V domains shown)
VL: EIVMTQSPATLSVSPGERATLSCRASENIYRNLAWYQQKPGQSPRLLIYAATNLADGIPARFSGSGSGTEYTLTISSLQSEDFAVYYCQHFWGTPWTFGQGTKVEIK
VH: QVQLVQSGSELKKPGASVKVSCKASGYTFTDYSMHWVRQAPGQGLEWMGWINTETGEPTYADDFKGRFVFSLDTSVSTAYLQISSLKAEDTAVYYCARIPLYYYGSRYWYFDVWGQGTTVTVSS
modifications: constant regions without entry; synthetic humanized antibody light chain variable region sequence; synthetic humanized antibody heavy chain variable region sequence
B2: 153 (antibody, V domains shown)
VH: B1 VH with E46K, D62Q, D63G, K65T
VL: DIQMTQSPSSLSASVGDRVTITCRASENIYRNLAWYQQKPGKAPKLLLYAATNLADGVPSRFSGSGSGTDYTLTISSLQSEDFATYYCQHFWGTPWTFGQGTKVEIK
modifications: synthetic humanized antibody heavy chain variable region sequence; synthetic humanized antibody light chain variable region sequence
B3: 140 (antibody, V domains shown)
VH: B1 VH with E46K, D62Q, D63G, K65T
VL: B2 VL with L48V, S80P
modifications: synthetic humanized antibody heavy chain variable region sequence; synthetic humanized antibody light chain variable region sequence
B4: 142 (antibody, V domains shown)
VH: B1 VH with E46K
VL: B2 VL with L48V, S80P
modifications: synthetic humanized antibody heavy chain variable region sequence; synthetic humanized antibody light chain variable region sequence
B5: 143 (antibody, V domains shown)
VH: B1 VH with V2I, E46K
VL: B2 VL with L48V, S80P
modifications: synthetic humanized antibody heavy chain variable region sequence; synthetic humanized antibody light chain variable region sequence
B6: 138 (antibody, V domains shown)
VH: B1 VH with V2I, E46K, D62Q, D63G, K65T
VL: B2 VL with L48V, S80P
modifications: synthetic humanized antibody heavy chain variable region sequence; synthetic humanized antibody light chain variable region sequence
B7: 139 (antibody)
VH: B1 VH with D62Q, D63G, K65T
VL: B2 VL with L48V, S80P
chain: ASTKGPSVFPLAPSSRSTSESTAALGCLVKDYFPEPVTVSWNSGALTSGVHTFPAVLQSSGLYSLSSVVTVPSSNFGTQTYTCNVDHKPSNTKVDKTVERKSCVECPPCPAPPAAAPSVFLFPPKPKDTLMISRTPEVTCVVVDVSHEDPEVQFNWYVDGVEVHNAKTKPREEQFNSTFRVVSVLTVVHQDWLNGKEYKCKVSNKGLPAPIEKTISKTKGQPREPQVYTLPPSREEMTKNQVSLTCLVKGFYPSDIAVEWESNGQPENNYKTTPPMLDSDGSFFLYSKLTVDKSRWQQGNVFSCSVMHEALHNHYTQKSLSLSPG
modifications: synthetic humanized antibody heavy chain variable region sequence; synthetic humanized antibody light chain variable region sequence; synthetic antibody constant region sequence
B8: 152 (antibody, V domains shown)
VH: B1 VH with D62Q, D63G, K65T
VL: B2 VL
modifications: synthetic humanized antibody heavy chain variable region sequence; synthetic humanized antibody light chain variable region sequence
B9: 141 (antibody, V domains shown)
VH: B1 VH
VL: B2 VL with L48V, S80P
modifications: synthetic humanized antibody heavy chain variable region sequence; synthetic humanized antibody light chain variable region sequence
B10: 73 (antibody, V domains shown)
VH: B1 VH with V2I, E46K
VL: B1 VL
modifications: synthetic humanized antibody heavy chain variable region sequence; synthetic humanized antibody light chain variable region sequence
B11: 96 (antibody, V domains shown)
VL: B1 VL
VH: B1 VH with E46K
modifications: constant regions without entry; synthetic humanized antibody light chain variable region sequence; synthetic humanized antibody heavy chain variable region sequence

What was measured:
Assay in all cases: Selectivity ELISA of humanized antibodies for human Eph receptor
Format in all cases: binding
Details in all cases: coated protein 1 nM
[1] = biological target: T1, human EphA1
Summary of the method: (§1)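 Human Eph ECD-SEAP-His fusions, harvested after 5 days of Expi293F expression, are captured on anti-His-coated wells (1 nM final). Bound humanized antibody is detected with HRP anti-IgG and TMB at 450 nm.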

[2] = biological target: T2, human EphB1
Summary of the method: as §1

[3] = biological target: T3, human EphA6
Summary of the method: as §1

Molecule	hEphA1-SEAP-: absorbance at 450 nm, percentage with respect to hEphA4-SEAP-His as 100% [1] [%]	hEphB1-SEAP-: absorbance at 450 nm, percentage with respect to hEphA4-SEAP-His as 100% [2] [%]	hEphA6-SEAP-: absorbance at 450 nm, percentage with respect to hEphA4-SEAP-His as 100% [3] [%]
B1	4.5	4.6	7.0
B2	6.3	6.0	8.7
B3	5.5	5.3	10.8
B4	5.6	5.6	9.7
B5	6.0	5.9	9.9
B6	5.2	5.1	10.2
B7	5.7	5.5	10.0
B8	5.8	5.9	8.3
B9	5.3	5.4	9.0
B10	6.0	5.7	7.4
B11	5.6	5.6	9.8
